According to publication PMC8797470, “Disruption of the pentraxin 3/CD44 interaction as an efficient therapy for triple‐negative breast cancers” (Clinical and Translational Medicine, 2022):

Key:
CD44 = target: T1, CD44 (Homo sapiens, UniProt P16070); test: Ligand binding ELISA on immobilised CD44; settings: HRP-conjugated recombinant proteins; wells coated with 10 μg/ml CD44; 2 h; OD 450 nm
T1 construct: purchased Sino Biological Inc. 12211-H08H
Method: Plate wells (9018; Corning Costar) were coated with 10 μg/ml of CD44 (12211‐H08H; Sino Biological Inc.) in PBS (pH 7.2) and then blocking for 1 h with the blocking buffer including 3% milk in PBS. For the stability binding experiments, the PTX3‐devired biotinylated peptides were pre‐incubated in serum for 1, 2, 4 or 6 h. For the binding experiments, the horseradish peroxidase (HRP)‐conjugated recombinant PTX3, PTX3/N, PTX3/C and PTX3NA or PTX3‐devired biotinylated peptides AD9, GR9, P2rdAD9 and P12rdGR9 (32310; LEADGENE) was responded in the well for 2 h. For the peptide of competition experiments, the PTX3‐devired biotinylated peptides RI37 and GI40 were diluted at the indicated concentration in PBS. After 2 h, PBS washed three times and then incubated with 5 μg/ml HRP‐conjugated PTX3 in PBS for 1 h at room temperature (RT). For the antibody competition experiments, Ab‐10 and Ab‐49 were incubated with 5 μg/ml HRP‐conjugated PTX3 in PBS for 2 h at RT. After incubation, the mixtures was responded in the well for 1 h at RT and then PBS washed three times, tetramethyl benzidine (TMB) was used to detect the bound HRP conjugate. After 15 min, the peroxidase reaction was stopped by adding 0.1 M H2SO4. Next, ELISA plate reader was used to detect the optical densities at 450 nm.

MDA-MB-231 cells = test: Transwell migration and Matrigel invasion assays; type: cell-based, human; settings: treatment in lower well, 18 h
From the text: In migration assay, MDA‐MB‐231 cells seeded in 8.0 μm pore polycarbonate membrane inserts (BD Biosciences) in 24‐well plates. In Matrigel invasion assay, inserts were pre‐coated with an appropriate amount of Matrigel first, and the same number of cells seeded on the Matrigel. After cells adhered on the inserts, serum‐free DMEM medium added in the upper wells. Serum‐free medium containing the treatments of TGF‐β1, PTX3, PTX3NA, PTX3/N, PTX3/C, RI37, GI40, AD9, GR9, IgG1κ, PTX3 Ab‐10 or PTX3 Ab‐49 were then mixed into the lower wells of the 24‐well plates. After incubating for 18 h, cells outside the insert were removed by wiping. The inside the inserts were then stained by 4′,6‐diamidino‐2‐phenylindol (DAPI). Fluorescence microscope was used for counting the total number of migrated cells with 200× magnification. Different from the experimental design for the MDA‐MB‐231 cells, the migrated 4T1‐Luc2 cells in the inside of the insert were detected by luciferase activity.

T1 sequence (P16070 21-220 limits assumed): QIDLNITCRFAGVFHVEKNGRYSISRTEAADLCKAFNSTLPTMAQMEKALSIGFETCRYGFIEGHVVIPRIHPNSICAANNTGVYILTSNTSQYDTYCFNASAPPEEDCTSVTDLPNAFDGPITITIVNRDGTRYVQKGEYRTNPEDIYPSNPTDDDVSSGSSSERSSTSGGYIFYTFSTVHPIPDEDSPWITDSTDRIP

binding to immobilised CD44 (CD44): could bind
B1: PTX3/C: recombinant truncated mutant, C‐terminus of PTX3, amino acids 180–381 (protein)
chain: ETAILFPMRSKKIFGSVHPVRPMRLESFSACIWVKATDVLNKTILFSYGTKRNPYEIQLYLSYQSIVFVVGGEENKLVAEAMVSLGRWTHLCGTWNSEEGLTSLWVNGELAATTVEMATGHIVPEGGILQIGQEKNGCCVGGGFDETLAFSGRLTGFNIWDSVLSNEEIRETGGAESCHIRGNIVGWGVTEIQPHGGAQYVS
modifications: left off: HRP conjugate, end not stated, kept
migration and invasion, protein alone (MDA-MB-231 cells): mimics PTX3 to induce
